Results: IntAct's records for PubMed 25239945

B1: Signal peptide peptidase (Homo sapiens), Q8TCT9 (parent)
chain: MDSALSDPHNGSAEAGGPTNSTTRPPSTPEGIALAYGSLLLMALLPIFFGALRSVRCARGKNASDMPETITSRDAARFPIIASCTLLGLYLFFKIFSQEYINLLLSMYFFVLGILALSHTISPFMNKFFPASFPNRQYQLLFTQGSGENKEEIINYEFDTKDLVCLGLSSIVGVWYLLRKHWIANNLFGLAFSLNGVELLHLNNVSTGCILLGGLFIYDVFWVFGTNVMVTVAKSFEAPIKLVFPQDLLEKGLEANNFAMLGLGDVVIPGIFIALLLRFDISLKKNTHTYFYTSFAAYIFGLGLTIFIMHIFKHAQPALLYLVPACIGFPVLVALAKGEVTEMFSYEESNPKDPAAVTESKEGTEASASKGLEKKEK
partner: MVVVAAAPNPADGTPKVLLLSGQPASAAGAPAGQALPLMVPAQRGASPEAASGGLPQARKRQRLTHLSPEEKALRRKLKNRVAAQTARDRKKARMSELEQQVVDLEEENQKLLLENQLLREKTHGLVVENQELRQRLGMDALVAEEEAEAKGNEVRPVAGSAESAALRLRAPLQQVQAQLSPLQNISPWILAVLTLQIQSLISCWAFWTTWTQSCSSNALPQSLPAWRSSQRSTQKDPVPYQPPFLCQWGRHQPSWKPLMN

Variants of: B1
Conditions: with XBP1, P17861-1

effect of a mutation on the interaction | Variant
increasing interaction | D265A
